Measured values as given in paper PMC6487875.

Substrate: N[C@@H](CC(=O)O)C(=O)O
Experiment: GLOX/HRP-coupled enzyme kinetics
Type: biochemical, Homo sapiens
Settings: PLP

B1: GOT1 (glutamate oxaloacetate transaminase 1, aspartate aminotransferase 1) (Homo sapiens) (protein)
chain: APPSVFAEVPQAQPVLVFKLTADFREDPDPRKVNLGVGAYRTDDCHPWVLPVVKKVEQKIANDNSLNHEYLPILGLAEFRSCASRLALGDDSPALKEKRVGGVQSLGGTGALRIGADFLARWYNGTNNKNTPVYVSSPTWENHNAVFSAAGFKDIRSYRYWDAEKRGLDLQGFLNDLENAPEFSIVVLHACAHNPTGIDPTPEQWKQIASVMKHRFLFPFFDSAYQGFASGNLERDAWAIRYFVSEGFEFFCAQSFSKNFGLYNERVGNLTVVGKEPESILQVLSQMEKIVRITWSNPPAQGARIVASTLSNPELFEEWTGNVKTMADRILTMRSELRARLEALKTPGTWNHITDQIGMFSFTGLNPKQVEYLVNEKHIYLLPSGRINVSGLTTKNLDYVATSIHEAVTKIQ
**Q.** B1 was tested. Which Km did it give?
**A.** Its Km is 4 mM.
